According to paper PMC4486934:

Target: alpha-thrombin (biotinylated, thrombin-BFPRck) (human, UniProt P00734;P00734 328-363;364-622)
Test: BLI; 2 mM Ca2+; TBB: 20 mM HEPES pH 7.4, 150 mM NaCl, 2 mM CaCl2; room temperature (cell binding); BLI in TBB

B1: 5-12mini (structured_RNA)
RNA: GGGAGCUCAGAAUAAACGCUCAAGUUACUGAGCUCAGCAUGAGGCCCGGAUCCGGC
modifications: 2'-fluoro pyrimidines
Kd: ~5 nM
